Laboratory results as given in patent US20090252717.

Columns and labels:
[1] = target: immunoprecipitated endogenous mouse brain kinesin-1 (UniProt Q61768)
[2] = target: KHC-584 (first 584 amino acids of rat KHC, expressed in E. coli) (UniProt Q2PQA9)
KHC-584 (first 584 amino acids of rat KHC, expressed in E. coli), sequence (Q2PQA9 1-584): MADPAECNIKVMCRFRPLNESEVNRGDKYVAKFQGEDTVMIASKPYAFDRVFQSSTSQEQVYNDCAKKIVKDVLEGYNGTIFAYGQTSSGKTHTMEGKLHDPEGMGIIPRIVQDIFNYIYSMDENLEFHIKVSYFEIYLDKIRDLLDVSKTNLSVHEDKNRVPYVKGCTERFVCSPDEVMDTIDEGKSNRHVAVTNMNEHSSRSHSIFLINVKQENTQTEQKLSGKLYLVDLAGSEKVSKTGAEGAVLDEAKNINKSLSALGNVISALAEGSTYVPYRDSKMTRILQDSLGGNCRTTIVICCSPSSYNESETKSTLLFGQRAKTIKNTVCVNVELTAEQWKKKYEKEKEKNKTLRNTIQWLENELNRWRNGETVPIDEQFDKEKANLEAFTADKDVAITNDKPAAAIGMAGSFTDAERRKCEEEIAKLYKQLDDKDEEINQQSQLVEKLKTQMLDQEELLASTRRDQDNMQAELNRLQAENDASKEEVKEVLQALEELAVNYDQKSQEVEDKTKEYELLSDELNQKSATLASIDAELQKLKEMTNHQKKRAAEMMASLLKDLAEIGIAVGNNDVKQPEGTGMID

recombinant 6-His-tagged JNK3 kinase (JNK3/SAPK1b, Upstate Biotechnology), sequence (P53779 whole entry): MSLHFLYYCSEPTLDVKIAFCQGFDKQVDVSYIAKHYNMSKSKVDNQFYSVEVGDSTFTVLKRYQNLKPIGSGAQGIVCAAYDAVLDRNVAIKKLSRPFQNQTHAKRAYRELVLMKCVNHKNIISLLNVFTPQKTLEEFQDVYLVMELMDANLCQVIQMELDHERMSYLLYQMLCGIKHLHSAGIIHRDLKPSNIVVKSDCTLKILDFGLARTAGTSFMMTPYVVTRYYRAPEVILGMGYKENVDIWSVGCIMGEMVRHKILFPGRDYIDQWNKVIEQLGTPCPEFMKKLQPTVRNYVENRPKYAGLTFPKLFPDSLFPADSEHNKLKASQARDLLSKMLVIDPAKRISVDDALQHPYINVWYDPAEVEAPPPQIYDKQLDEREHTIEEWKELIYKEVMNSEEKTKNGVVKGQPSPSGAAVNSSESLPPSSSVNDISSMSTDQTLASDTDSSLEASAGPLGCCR
immunoprecipitated endogenous mouse brain kinesin-1, sequence (Q61768 whole entry, looked up): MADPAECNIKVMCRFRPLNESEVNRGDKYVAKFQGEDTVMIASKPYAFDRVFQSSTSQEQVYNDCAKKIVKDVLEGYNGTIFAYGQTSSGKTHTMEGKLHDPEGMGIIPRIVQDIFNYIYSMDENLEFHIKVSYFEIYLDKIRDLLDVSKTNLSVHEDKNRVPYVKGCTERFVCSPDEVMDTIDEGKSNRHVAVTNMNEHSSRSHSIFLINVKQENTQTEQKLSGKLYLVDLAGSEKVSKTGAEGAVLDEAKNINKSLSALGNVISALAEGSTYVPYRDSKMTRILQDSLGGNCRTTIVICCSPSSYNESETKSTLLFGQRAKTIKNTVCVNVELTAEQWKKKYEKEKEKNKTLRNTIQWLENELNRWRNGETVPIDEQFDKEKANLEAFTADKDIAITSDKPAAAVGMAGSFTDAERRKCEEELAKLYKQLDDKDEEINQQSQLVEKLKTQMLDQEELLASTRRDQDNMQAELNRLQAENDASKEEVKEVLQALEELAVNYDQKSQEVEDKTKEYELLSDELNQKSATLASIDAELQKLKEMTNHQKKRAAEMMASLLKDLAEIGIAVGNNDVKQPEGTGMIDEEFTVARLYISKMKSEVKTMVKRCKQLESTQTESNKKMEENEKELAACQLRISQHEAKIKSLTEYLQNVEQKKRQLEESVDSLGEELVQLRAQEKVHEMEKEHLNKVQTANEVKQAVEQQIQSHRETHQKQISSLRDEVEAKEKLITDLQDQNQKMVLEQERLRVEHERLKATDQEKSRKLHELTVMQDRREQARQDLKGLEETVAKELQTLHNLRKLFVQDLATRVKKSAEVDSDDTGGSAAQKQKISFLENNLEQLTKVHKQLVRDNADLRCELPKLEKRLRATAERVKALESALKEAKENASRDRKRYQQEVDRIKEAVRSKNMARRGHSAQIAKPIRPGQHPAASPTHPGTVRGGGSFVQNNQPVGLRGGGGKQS

recombinant 6-His-tagged JNK3 kinase (JNK3/SAPK1b, Upstate Biotechnology)
in vitro kinase assay (32P incorporation) [1]: both recombinant KHC and immunoprecipitated endogenous mouse brain kinesin-1 KHC could be phosphorylated by recombinant JNK
in vitro phosphorylation, autoradiogram [1]: Autoradiograms showed 32P incorporation in KHCs, but not KLCs
in vitro kinase assay (32P incorporation) [2]: both recombinant KHC and immunoprecipitated endogenous mouse brain kinesin-1 KHC could be phosphorylated by recombinant JNK
in vitro phosphorylation, mass spectrometry of tryptic peptides [2]: A single tryptic peptide was identified with evidence of phosphorylation
